Test results reported in publication PMC3855536.

Substrate: C=C(O[C@@H]1C=C(C(=O)O)C=C[C@H]1O)C(=O)O
Test: steady-state kinetics
Format: biochemical, Thermus thermophilus
Details: dehydration of chorismate to 12

B1: MqnA (TTHA0803) (Thermus thermophilus HB8) (protein)
chain: MRPYVLGLPRYANVAPLHHFLRLEGFRVLHAVPAELNRLLLSGEVGLSLVSSYFYLKHQDSLGLLPDFSVAVLGRVYSVNLFHKGALPHLARVALTTESATSVALLKLLLKEAGAGPRYERREGGLELLSAYDGVLLIGDRAIKAYAALLPEVPETPHALPTRFGEVEVADLSTLWFQRTHLPFVFAVWAYRRENPPPKALVQALREARREGLGRLREVAEAEARRLGVHPLLLQHYLWNFRYHLEEPDRLGLKAFAEALGLPFAPMFYPE
  Km: 161.6 ± 7.1 µM
  kcat: 1.27 ± .02 s⁻¹
